# Test results from US7390625B2, “Apoptosis-associated protein and use thereof” (Takeda Pharmaceutical Company Limited, priority 2002, dated 2008).
# T1: ASK1 (Homo sapiens, UniProt Q99683)
# T1 construct: Myc; expressed in transfected cells; host or cells: HEK293
# T1 sequence (Q99683 1-1374): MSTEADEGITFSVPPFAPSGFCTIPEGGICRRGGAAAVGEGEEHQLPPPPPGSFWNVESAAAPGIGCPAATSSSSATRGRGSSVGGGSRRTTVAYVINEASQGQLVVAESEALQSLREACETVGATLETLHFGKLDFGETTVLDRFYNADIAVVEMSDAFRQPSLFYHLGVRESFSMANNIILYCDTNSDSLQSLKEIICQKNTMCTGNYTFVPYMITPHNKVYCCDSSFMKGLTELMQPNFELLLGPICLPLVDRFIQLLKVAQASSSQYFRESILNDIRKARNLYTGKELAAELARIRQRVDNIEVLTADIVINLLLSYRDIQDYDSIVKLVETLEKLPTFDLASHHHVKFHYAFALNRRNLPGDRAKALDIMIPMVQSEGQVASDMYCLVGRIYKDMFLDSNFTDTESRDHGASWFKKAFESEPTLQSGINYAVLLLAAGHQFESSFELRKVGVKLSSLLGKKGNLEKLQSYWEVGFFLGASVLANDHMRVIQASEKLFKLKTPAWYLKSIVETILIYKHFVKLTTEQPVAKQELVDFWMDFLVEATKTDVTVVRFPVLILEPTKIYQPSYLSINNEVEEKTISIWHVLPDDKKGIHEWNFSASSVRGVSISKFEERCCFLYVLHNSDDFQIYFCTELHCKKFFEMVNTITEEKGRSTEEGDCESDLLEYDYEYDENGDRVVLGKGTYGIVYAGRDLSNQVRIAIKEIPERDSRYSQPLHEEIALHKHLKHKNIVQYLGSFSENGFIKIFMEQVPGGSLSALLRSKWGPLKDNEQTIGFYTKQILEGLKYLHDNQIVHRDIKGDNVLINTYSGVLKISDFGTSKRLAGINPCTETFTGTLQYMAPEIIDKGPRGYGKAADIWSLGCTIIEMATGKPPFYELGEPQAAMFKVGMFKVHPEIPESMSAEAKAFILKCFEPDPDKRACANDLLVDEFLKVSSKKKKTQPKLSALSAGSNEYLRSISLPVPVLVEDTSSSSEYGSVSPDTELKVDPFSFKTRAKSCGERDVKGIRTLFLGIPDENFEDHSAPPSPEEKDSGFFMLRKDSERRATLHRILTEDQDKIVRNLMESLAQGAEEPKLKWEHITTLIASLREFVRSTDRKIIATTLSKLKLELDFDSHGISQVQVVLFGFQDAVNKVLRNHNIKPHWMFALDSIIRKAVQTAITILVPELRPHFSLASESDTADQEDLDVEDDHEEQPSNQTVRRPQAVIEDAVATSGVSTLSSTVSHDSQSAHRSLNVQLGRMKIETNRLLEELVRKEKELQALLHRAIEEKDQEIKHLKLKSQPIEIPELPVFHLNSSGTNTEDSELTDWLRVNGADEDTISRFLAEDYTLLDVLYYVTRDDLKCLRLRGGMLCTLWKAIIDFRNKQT
# Key:
# HeLa cells = assay: Cell death assay in HeLa cells transiently expressing CFP fusion proteins; type: cell-based
# Protocol: FIGS. 6A-B show the induction of cell death by ABP1 in HeLa cells. FIG. 6A: Fluorescence photomicrographs at 36 hours after HeLa cells were transfected with CFP or the CFP-ABP1 plasmid (upper panel) and differential interference photomicrographs for the same fields (lower panel) are shown. FIG. 6B: The ratio (%) of cell death at 36 hours after transfection is shown.
# FIGS. 10A-B show the induction of cell death by an ABP1-deficient variant. FIG. 10A: A schematic diagram of the ABP1-deficient variant is shown. […] FIG. 10B: The ratio (%) of cell death at 36 hours after transfection in cells introduced with the ABP1-deficient variant is shown.
# • (1) To examine the intracellular localization and function of ABP1, HeLa cells were transfected with the CFP-ABP1 plasmid [prepared by subcloning ABP1 cDNA prepared by PCR into pECFP-C1 (Clontech)], which was also used in the immunoprecipitation experiment, and which expresses a fusion protein of ABP1 with CFP at the N-terminal-[transfection conducted using FuGENE6 (Roche Diagnostics K.K) as directed in the instruction manual thereof] to allow the transient expression of the protein, and CFP fluorescence was examined over time using a fluorescence microscope. […] This calculation was made for CFP-positive cells.
# As described above, ABP1 has none of the functional domains of existing apoptosis-related factors. […]
# ASK1 [1] = target: T1, ASK1; assay: Co-immunoprecipitation of ABP1 and ASK1 co-expressed in HEK293 cells; type: binding
# Protocol: FIGS. 4A-B show the results of binding experiments of ABP1 and ASK1. FIG. 4A: HEK293 cells were transfected with Flag-ABP1 and the Myc-ASK1 plasmid, the cells were recovered after 24 hours, immunoprecipitation with an anti-Flag antibody was conducted, and immunoblot analysis was conducted using an anti-Myc antibody. FIG. 4B: HEK293 cells were transfected with Flag-ASK1 and the CFP-ABP1 plasmid, the cells were recovered after 24 hours, immunoprecipitation with an anti-Flag antibody was conducted, and immunoblot analysis was conducted using an anti-GFP antibody. Note that CFP is a variant of GFP and can be recognized by an anti-GFP antibody. For both FIGS. 4A and B, the two right lanes show the results obtained with H2O2 treatment (0.5 mM, 1 hour). […] IP stands for immunoprecipitation, and IB stands for immunoblot.
# Two fusion proteins, i.e., Flag-ABP1 and Myc-ASK1, were co-expressed in HEK293 cells. […] The antibodies used were anti-Flag antibody (described above) and anti-Myc antibody (Clone 9E10, Calbiochem). This binding was enhanced by treatment with H2O2, which is ASK1 activation factor. […] The antibodies used were anti-Flag antibody (described above) and anti-GFP antibody (Medical & Biological Laboratories CO.).
# caspase-3 = assay: Caspase-3 activity (DEVD-AFC fluorometric assay) in PAE-ABP1 cells; type: cell-based, porcine; details: absence of tetracycline, around the time of cell death
# Protocol: (§1) FIGS. 9A-B show the caspase dependency of cell death by ABP1. FIG. 9A: PAE-ABP1 cells were cultivated in the absence of tetracycline, and caspase-3 activity was measured after 0, 12, 24, and 36 hours. The results are shown as relative values with the value in the presence of tetracycline taken as 1. FIG. 9B: PAE-ABP1 cells were treated with zVAD-fmk (50 μM) simultaneously with removal of tetracycline, and the ratio (%) of dead cells was quantified. Cell death assay was conducted at 18 hours after removal of tetracycline. Tet stands for tetracycline.
# The same was also confirmed in TUNEL staining of PAE-ABP1 cells. • (4) DNA fragmentation during apoptosis normally occurs subsequent to caspase activation. […] The measurement was conducted using a CPP32/caspase-3 fluorometric protease assay kit (MBL) with the synthetic fluorescence peptide DEVD-7-amino-4-trifluoromethyl coumarin (AFC) as a substrate. The fluorescence intensity from the liberated AFC was measured at an excitation wavelength of 360 nm and a fluorescence wavelength of 530 nm using a fluorescence spectrophotometer. Each sample was assayed twice. The results are shown as relative values with the value in the presence of tetracycline taken as 1.
# p38 = assay: Immunoblot with anti-phosphorylated p38 antibody in PAE-ABP1 cells; type: cell-based, porcine; details: 12 hours after tetracycline removal
# Source text: (§2) FIGS. 11A-B show the activation of ASK1, JNK, and p38 by ABP1. FIG. 11A: PAE-ABP1 cells were cultivated in the absence of tetracycline, the activation of endogenous JNK and p38 was examined by immunoblot analysis using each anti-phosphorylated protein antibody. FIG. 11B: PAE-ABP1 cells were cultivated in the absence of tetracycline, the activation of endogenous ASK1 was examined by immunoblot analysis using an anti-phosphorylated protein antibody. IB stands for immunoblot.
# (§3) The activation of JNK and p38 during induction of the expression of ABP1 was investigated using respective anti-phosphorylated protein antibodies using PAE-ABP1 cells. The antibodies used were an anti-phosphorylated JNK antibody (Cell Signaling), an anti-phosphorylated p38 antibody (Cell Signaling), and an anti-phosphorylated ASK1 antibody (Tobiume et al., EMBO Rep., 2, 222-228, 2001). The cells were lysed using a lysis buffer (described above) in the same manner as Example 4, the lysate was centrifuged, the supernatant was recovered and reacted with an anti-Myc antibody (Clone 9E10, Calbiochem), Protein A-sepharose 4B (Zymed Laboratories) was added, incubation was conducted for 30 minutes, the reaction mixture was washed with the lysis buffer three times, an SDS sample buffer (described above) was added, and the same procedure as the immunoblotting method was followed.
# JNK = assay: Immunoblot with anti-phosphorylated JNK antibody in PAE-ABP1 cells; type: cell-based, porcine; details: 12 hours after tetracycline removal
# Source text: as §2, §3
# PAE-ABP1 cells [2] = assay: DNA fragmentation (agarose gel electrophoresis) in PAE-ABP1 cells; type: cell-based, porcine; details: after removal of tetracycline
# Protocol: PAE-ABP1 cells were examined for DNA fragmentation at each time after removal of tetracycline by agarose gel electrophoresis (upper panel). At both ends are molecular weight markers (M), with their sizes shown at the right end.
# PAE-ABPl cells (2×10^6 cells) were lysed in 200 μl of lysis buffer [20 mM Tris-HCl (pH 7.5), 10 mM EDTA, 0.5% Triton X-100]. the lysate was centrifuged, and the supematant was recovered and treated with 0.2 mg/mi proteinase K at 420° C for 1 hour. Subsequently, DNA was purified by the phenol-chloroform extraction method and the ethanol precipitation method, this was lysed again in a TE buffer containing 0.2 mg/ml ribonuclease A (10mM Tris-HCl, 1mM EDTA), the lysate was electrophoresed on 2% agarose gel, stained with ethidium bromide, and the migration pattern was photographed.
# ASK1 [3] = assay: Immunoblot with anti-phosphorylated ASK1 antibody in PAE-ABP1 cells; type: cell-based, porcine; details: 12 hours after tetracycline removal
# Source text: as §2, §3
# PAE-ABP1 cells [4] = assay: Cell death assay in PAE-ABP1 cells after removal of tetracycline; type: cell-based, porcine; details: 48 hours after removal of tetracycline (Myc-ABP1 expressed)
# Protocol: FIGS. 7A-B show the induction of cell death by ABP1 in PAE-ABP1 cells. FIG. 7A: Phase contrast photomicrographs at 36 hours after cultivation of PAE-ABP1 cells in the presence (+) and absence (−) of tetracycline (Tet) are shown. FIG. 7B: The ratio (%) of cell death from cultivation in the presence of tetracycline (O hour) and at 24 hours and 48 hours after removal of tetracycline.
# as §1, with “Tet stands for tetracycline.” left out
# When these cells were cultured in the absence of tetracycline, cell death was induced with the expression of the ABP1 protein, as in the transient expression of the ABP1 protein in HeLa cells (FIG. 7A). The ratio of dead cells to all cells (the ratio of cells showing a morphological sign of cell death to all cells was determined under a microscope; the results were shown as the mean for three visual fields) was determined to be about 55% at 48 hours after removal of tetracycline (FIG. 7B).
"effect of H2O2 treatment on binding of ABP1 and ASK1 (ASK1 [1]; H2O2 treatment (0.5 mM, 1 hour))",Molecule,ratio of cell death among cells expressing the fusion protein (HeLa cells; 36 hours after transfection),"time after transfection at which signs of cell death began (HeLa cells; detachment from the culture plate, membrane blebbing)","binding of ABP1 and ASK1 (co-immunoprecipitation) (ASK1 [1]; immunoprecipitation with anti-Flag antibody, immunoblot)",caspase-3 activity (caspase-3),activation of endogenous p38 (p38),activation of endogenous JNK (JNK),DNA fragmentation (PAE-ABP1 cells [2]),activation of endogenous ASK1 (ASK1 [3]),ratio of dead cells to all cells (PAE-ABP1 cells [4])
also enhanced,"CFP-ABP1: fusion protein of ABP1 with CFP at the N-terminal (protein, left off: large carriers, fusion protein of ABP1 with CFP at the N-terminal) MRPLDIVELAEPEEVEVLEPEEDFEQFLLPVINEMREDIASLTREHGRAYLRNRSKLWEMDNMLIQIKTQVEASEESALNHLQNPGDAAEGRAAKRCEKAEEKAKEIAKMAEMLVELVRRIEKSESS",about 70%,around 24 hours,binding of the two proteins was confirmed,–,–,–,–,–,–
–,"ABP1: ASK1-binding protein of 127 amino acids encoded by gene PGR1 (SEQ ID NO:2); Myc-tagged in PAE-ABP1 cells (protein, listed as Homo sapiens, Myc tag, Myc-tagged in PAE-ABP1 cells) MRPLDIVELAEPEEVEVLEPEEDFEQFLLPVINEMREDIASLTREHGRAYLRNRSKLWEMDNMLIQIKTQVEASEESALNHLQNPGDAAEGRAAKRCEKAEEKAKEIAKMAEMLVELVRRIEKSESS",–,–,–,decreased,observed,observed,formed a DNA ladder,activation of ASK1 was observed,about 55%
